Data on 6 molecules can be found in publication PMC4297295, “Structural Conservation Despite Huge Sequence Diversity Allows EPCR Binding by the PfEMP1 Family Implicated in Severe Childhood Malaria” (Cell Host & Microbe, 2015).

As usually defined, the Kd is the concentration at which binding is half-saturated. A higher Kd goes with lower affinity. Usually koff stands for the rate constant with which the complex falls apart. Read a low koff as slow dissociation. In general, kon refers to the rate constant with which the complex forms. Higher therefore signals faster complex formation.

To fix the notation:
T1: endothelial protein C receptor (EPCR), extracellular domain, biotinylated on the N-terminal BAP tag (human, UniProt Q9UNN8 18-210, biotin attached to the N-terminal BAP tag (BirA))
T1 construct: also called biotinylated recombinant EPCR; ECPR
T1 sequence: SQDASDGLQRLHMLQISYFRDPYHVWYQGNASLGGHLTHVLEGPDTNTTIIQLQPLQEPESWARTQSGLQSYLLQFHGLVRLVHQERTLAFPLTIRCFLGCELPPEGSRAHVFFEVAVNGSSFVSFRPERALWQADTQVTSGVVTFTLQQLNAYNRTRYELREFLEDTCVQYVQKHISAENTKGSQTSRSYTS

B1: CIDRα1.1 domain of PfEMP1 IT4var20 (domain or fragment)
chain: PDCVVQCKGGKCTEDKKNDKCRSKIIKKILQSEEPTEIHVLNSDDKQGDITKKLEVFCSSTTNYEGRNVQKWKCYNKNSDYNNCEMNISSYKDSTDANVMLSVECFHSWAKNLLIDTIKWEHQLKNCINNTNVTYCESKCIKNCECYEKWIKRKEHEWEKVKNVFGNNNRMSYIYYNNLSRVFDSFLFQVMFALDQDEKGKWDQFTEDLKKKFEPSKTNTPTGKSQDAIEFLLDHLKDNALTCRDNNSNESCDVSKKVKTNPC
notes: also called CIDRa1.1 IT4var20_IT4; IT4var20 (1.1)
B2: CIDRα1.4 domain of PfEMP1 DD2var32 (domain or fragment)
chain: PDCGVECNKGTCKKKPNDSNCRNNEAYIPPRDVTPTKINVLYSGDGHGDITKKLKGFCSNPTDYDGKNYENWQCYYKSSEDNKCQMTSLSQTLQKHHYVMSFYAFFDFWVRKFLIDTIKWENELKNCINNTTTDCSDGCNKHCVCFDKWVKQKEKEWNSIKKLFTKKNNVPQPYYTNINNLFDSFYFQVMYELNHDEAKWKELTQELRNKINSSKKNTDAADSKDAIELLLEYLKEKSTICKDNNTNEAC
notes: also called CIDRa1.4 DD2var32_DD2; DD2var32 (1.4)
B3: CIDRα1.1 domain GA011_ERS009959 (domain or fragment)
chain: PDCVVYCEGGECKENENGDNCRSEIIKEIVRSETPTVIDVLYSGNGQDHITEKLDHFCSSTNKEDRKYYKTLKCYNKNNDYNKCEMISWLYQDPKESNLMLSIQCFYSWAQNLLIDTIRWEHQLKDCINNTNVTDCKSNCNKNCKCYKKWIEQKGSEWQQVKQVLKKKDKNSENYYDKLKDVFDTLYFEVMHELNKGKEKGKSEELTEDLKKKFGPSKKNTDAADSKDAIEFLLDHLNDNAITCKDNNSLAVENCTRTKSNPC
notes: also called CIDRa1.1 GA011_ERS009959; GA011 (1.1)
B4: CIDRα1.1 domain of PfEMP1 RAJ116var08 (domain or fragment)
chain: PDCVVDCTGGNCKENKKHDNCRSKIIEEILRSEETTDIDVLYSGKGPGAITKKLHDFCSNPNNYKRANVQKWKCYNKNKDYNNCEMNISSYKDATDPNVMLSVQCFYSWAQNLLIDIIRWEHQLKDCINNTNVTDCDNECNKNCECFEKWIKQKQKEWQQVKEVLKKKDENSHNYYNKLRSVFDSFLYQVMFALNNEEKGKWDQFTEDLEKKFESSKKSAGTGNSQDAIEFLLDHLNDNAITCKDNNSKESC
notes: also called CIDRa1.1 RAJ116var08_RAJ116; RAJ116var08 (1.1)
B5: CIDRα1.5a domain 1965-2 (patient isolate 1965) (domain or fragment)
chain: PDCGVECKNGRCKKKTDADGNCGKTQIYDIPKDVTPTDINVLYSGDEYGDIAKRLSEFCRDSKKENGKNTEIWHCYYIGDKHNQCKMEKAVAENKHQTKITTFDFFFDLWIKNLLRDTINWKSQLKNCINNTNKTNCNKTCNENCKCFENWVNQKEKEWNNMKELFKNKNRTSQNYYNKLKSHFDNYFFLVINNVNKGEAKWKKFTDELRNKIDSSKAKNGTSDSQDSIKMLLEHLKEDGTTCTANNPDSICNTPGTDARSLEPASKIEPQNKDTRTNPC
B6: CIDRα1.5a domain GA013_ERS010323 (domain or fragment)
chain: PYCGVDCSNGTCKENGNDDNCGEQQNYNIPKGVDPTNINVLYSVDGHGDIAKRLSTFCNDKNNKNAKNNEIWQCYYIGHKNNQCKIEKSVSQKKHQTKIAPFDYFFDLWVTNLLRDNIDWKNELKNCINNKNTEKCNKECNDNCKCFQSWLNKKEDEWNKITGLLKNKNGILQNYYNKLKSHFDYYFFQVINNINKGEEKWKKLKEDLKKEIDFSKLKTNTGDSQDSIKLLLDHENKNAGTCLKNNPIDSCPKAEPQKSDEKVQPQDTPPNSC
notes: also called CIDRa1.5a GA013_ERS010323; GA013 (1.5a)

The target of this assay is T1, endothelial protein C receptor (EPCR), …. The assay is described as follows: SPR. To be noted: both partners purified.
Take B1: binding was characterised by a dissociation constant (Kd) of 0.37 nM, the koff worked out at 0.000123 s⁻¹ and the kon stood at 332000 M⁻¹ s⁻¹.

Molecule B2 came in with a Kd of 0.3 nM, a koff of 0.000343 s⁻¹ and a kon of 1.06e+06 M⁻¹ s⁻¹.

In the case of B3, the Kd is 182 nM, the koff stood at 7.24e-05 s⁻¹ and the kon was determined as 389 M⁻¹ s⁻¹.

Take B4: the dissociation constant Kd turned out to be 1.4 nM, the koff was 3.85e-05 s⁻¹ and the kon was found to be 27900 M⁻¹ s⁻¹.

B5 gave a Kd of 54 nM, a koff of 0.00103 s⁻¹ and a kon of 18900 M⁻¹ s⁻¹.

Turning to B6, the dissociation constant Kd turned out to be 57 nM, the koff was 0.000832 s⁻¹ and the kon is 14700 M⁻¹ s⁻¹.
